From article PMC2648313, “Identification of Rhoptry Trafficking Determinants and Evidence for a Novel Sorting Mechanism in the Malaria Parasite Plasmodium falciparum” (PLoS Pathogens, 2009)
Numbering of substitutions follows the chain as printed.

T1: RAP1(22-152) mutant, aspartate 39, 43 and 44 to alanine (P. falciparum 3D7, UniProt Q9U429 22-152, aspartate 39 to alanine | aspartate 43 to alanine | aspartate 44 to alanine)
T1 construct: not shown: His6, C-terminal, kept
T1 sequence: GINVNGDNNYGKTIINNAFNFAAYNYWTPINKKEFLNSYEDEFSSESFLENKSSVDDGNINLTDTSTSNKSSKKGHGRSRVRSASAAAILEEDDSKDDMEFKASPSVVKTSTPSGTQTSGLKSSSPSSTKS

T2: RAP1(22-152) mutant, aspartate 39, 43 and 44 to arginine (P. falciparum 3D7, UniProt Q9U429 22-152, aspartate 39 to arginine | aspartate 43 to arginine | aspartate 44 to arginine)
T2 construct: not shown: His6, C-terminal, kept
T2 sequence: T1 sequence with A18R, A22R, A23R

T3: RAP1(22-152), recombinant His6-tagged RAP1 protein representing amino acids 22-152 (P. falciparum 3D7, UniProt Q9U429 22-152)
T3 construct: contains the RAP1 rhoptry signal (22-55); Amplified from 3D7 genomic DNA, cloned NcoI/XhoI into pET28b upstream of the His6 tag; not shown: His6, C-terminal, kept
T3 sequence: T1 sequence with A18D, A22D, A23D

T4: RAP1(22-152) mutant, residues 40, 42 and 45 to glycine (P. falciparum 3D7, UniProt Q9U429 22-152, aromatic residue 40 to glycine | aromatic residue 42 to glycine | aromatic …)
T4 construct: not shown: His6, C-terminal, kept
T4 sequence: T1 sequence with A18D, F19G, F21G, A22D, A23D, Y24G

B1: RAMAE, RAMA-GST fusion protein representing amino acids 759-840 (domain or fragment)
chain: DNKFVAHKKREKSISPHSYQKVSTKVQNKENMENKEKKQLINDEAAMTAEELVELENTEDVNTPTMVETEEIDFDENGNKSS
notes: rhoptry associated membrane antigen (RAMA), P. falciparum, amino acids 759-840; source: E. coli BL21 (DE3), purified (glutathione resin)
B2: RAMAE1, RAMA-GST fusion protein representing amino acids 759-798 (domain or fragment)
chain: DNKFVAHKKREKSISPHSYQKVSTKVQNKENMENKEKKQL
notes: rhoptry associated membrane antigen (RAMA), P. falciparum, amino acids 759-798; Amplified from P. falciparum cDNA and cloned into pGEX-4T-1; source: E. coli BL21 (DE3), purified (glutathione resin)

Tests used:
Experiment in all cases: pull-down; 100 ug His6-tagged RAP1 recombinant protein immobilised on TALON resin, incubated O/N at 4 C with purified GST-fusion proteins in pull-down buffer (50 mM Na2HPO4, 75 mM NaCl, 0.1% Triton X-100, 5 mM imidazole, pH 7.4); eluted with imidazole; Coomassie gel and immunoblot with anti-GST
Conditions in all cases: both partners purified
[1] = molecular target: T1, RAP1(22-152) mutant, aspartate 39, 43 …
[2] = molecular target: T2, RAP1(22-152) mutant, aspartate 39, 43 …
[3] = molecular target: T3, RAP1(22-152), recombinant His6-tagged …
[4] = molecular target: T4, RAP1(22-152) mutant, residues 40, 42 …

Binder	binding result [1]	binding result [2]	binding result [3]	binding result [4]
B1	binds	binds	binds	binds
B2	–	–	binds	–
